Each block holds one binder with its values, some of them ahead of it.
What was measured:
4H492-bA = target: T1, 4H492-bA; assay: two-hybrid library CCNG1;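 note: natural log of median RNA to DNA barcode read ratio; higher means stronger binding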
T1 chain: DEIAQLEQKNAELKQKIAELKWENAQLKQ

4H319-bA = target: T2, 4H319-bA; assay: two-hybrid library CCNG1;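 note: natural log of median RNA to DNA barcode read ratio; higher means stronger binding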
T2 chain: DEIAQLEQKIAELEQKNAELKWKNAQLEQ

4H3057-bA = target: T3, 4H3057-bA; assay: two-hybrid library CCNG1;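 note: natural log of median RNA to DNA barcode read ratio; higher means stronger binding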
T3 chain: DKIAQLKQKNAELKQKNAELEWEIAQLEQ

4H2839-bA = target: T4, 4H2839-bA; assay: two-hybrid library CCNG1;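 note: natural log of median RNA to DNA barcode read ratio; higher means stronger binding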
T4 chain: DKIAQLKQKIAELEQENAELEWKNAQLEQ

4H477-bA = target: T5, 4H477-bA; assay: two-hybrid library CCNG1;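 note: natural log of median RNA to DNA barcode read ratio; higher means stronger binding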
T5 chain: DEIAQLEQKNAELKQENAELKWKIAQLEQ

4H741-bA = target: T6, 4H741-bA; assay: two-hybrid library CCNG1;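 note: natural log of median RNA to DNA barcode read ratio; higher means stronger binding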
T6 chain: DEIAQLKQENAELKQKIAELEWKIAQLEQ

4H2915-bA = target: T7, 4H2915-bA; assay: two-hybrid library CCNG1
T7 chain: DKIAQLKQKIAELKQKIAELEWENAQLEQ

4H3277-bA = target: T8, 4H3277-bA; assay: two-hybrid library CCNG1
T8 chain: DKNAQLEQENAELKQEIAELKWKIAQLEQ

4H40-bA = target: T9, 4H40-bA; assay: two-hybrid library CCNG1
T9 chain: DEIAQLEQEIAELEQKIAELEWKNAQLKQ

4H348-bA = target: T10, 4H348-bA; assay: two-hybrid library CCNG1
T10 chain: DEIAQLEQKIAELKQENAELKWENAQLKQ

P9A = target: T11, P9A; assay: two-hybrid library CCNG1
T11 chain: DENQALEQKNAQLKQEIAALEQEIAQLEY

P8A = target: T12, P8A; assay: two-hybrid library CCNG1
T12 chain: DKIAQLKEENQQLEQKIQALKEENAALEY

O9-bS = target: T13, O9-bS; assay: two-hybrid library CCNG1
T13 chain: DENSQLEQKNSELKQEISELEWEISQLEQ

O5-bS = target: T14, O5-bS; assay: two-hybrid library CCNG1
T14 chain: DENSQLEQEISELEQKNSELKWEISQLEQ

O8-bS = target: T15, O8-bS; assay: two-hybrid library CCNG1
T15 chain: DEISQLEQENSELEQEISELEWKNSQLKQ

O7-bS = target: T16, O7-bS; assay: two-hybrid library CCNG1
T16 chain: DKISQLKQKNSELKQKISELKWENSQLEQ

O6-bS = target: T17, O6-bS; assay: two-hybrid library CCNG1
T17 chain: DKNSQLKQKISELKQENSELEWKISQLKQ

4H341-AA = target: T18, 4H341-AA; assay: two-hybrid library CCmax; settings: mean of both orientations
T18 chain: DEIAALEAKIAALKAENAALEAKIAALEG

4H2961-AA = target: T19, 4H2961-AA; assay: two-hybrid library CCmax; settings: mean of both orientations
T19 chain: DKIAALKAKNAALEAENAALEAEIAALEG

4H63-AA = target: T20, 4H63-AA; assay: two-hybrid library CCmax; settings: mean of both orientations
T20 chain: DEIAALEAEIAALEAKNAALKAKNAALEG

4H2774-AA = target: T21, 4H2774-AA; assay: two-hybrid library CCmax; settings: mean of both orientations
T21 chain: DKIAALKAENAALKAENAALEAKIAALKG

4H2947-AA = target: T22, 4H2947-AA; assay: two-hybrid library CCmax; settings: mean of both orientations
T22 chain: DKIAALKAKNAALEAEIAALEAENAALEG

4H2760-AA = target: T23, 4H2760-AA; assay: two-hybrid library CCmax; settings: mean of both orientations
T23 chain: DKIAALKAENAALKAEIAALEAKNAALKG

4H3629-AA = target: T24, 4H3629-AA; assay: two-hybrid library CCmax; settings: mean of both orientations
T24 chain: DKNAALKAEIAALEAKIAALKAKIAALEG

4H3619-AA = target: T25, 4H3619-AA; assay: two-hybrid library CCmax; settings: mean of both orientations
T25 chain: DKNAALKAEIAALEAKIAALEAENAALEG

4H3094-AA = target: T26, 4H3094-AA; assay: two-hybrid library CCmax; settings: mean of both orientations
T26 chain: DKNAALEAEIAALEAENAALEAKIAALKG

4H3974-AA = target: T27, 4H3974-AA; assay: two-hybrid library CCmax; settings: mean of both orientations
T27 chain: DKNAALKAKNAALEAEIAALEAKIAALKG

4H432-AA = target: T28, 4H432-AA; assay: two-hybrid library CCmax; settings: mean of both orientations
T28 chain: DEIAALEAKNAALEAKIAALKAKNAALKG

4H3449-AA = target: T29, 4H3449-AA; assay: two-hybrid library CCmax; settings: mean of both orientations
T29 chain: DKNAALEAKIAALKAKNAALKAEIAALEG

4H2903-AA = target: T30, 4H2903-AA; assay: two-hybrid library CCmax; settings: mean of both orientations
T30 chain: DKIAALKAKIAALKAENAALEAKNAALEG

4H446-AA = target: T31, 4H446-AA; assay: two-hybrid library CCmax; settings: mean of both orientations
T31 chain: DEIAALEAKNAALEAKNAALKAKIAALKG

4H3777-AA = target: T32, 4H3777-AA; assay: two-hybrid library CCmax; settings: mean of both orientations
T32 chain: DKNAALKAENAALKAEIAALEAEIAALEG

4H3915-AA = target: T33, 4H3915-AA; assay: two-hybrid library CCmax; settings: mean of both orientations
T33 chain: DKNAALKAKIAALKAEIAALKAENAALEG

4H324-AA = target: T34, 4H324-AA; assay: two-hybrid library CCmax; settings: mean of both orientations
T34 chain: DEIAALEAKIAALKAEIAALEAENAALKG

4H380-AA = target: T35, 4H380-AA; assay: two-hybrid library CCmax; settings: mean of both orientations
T35 chain: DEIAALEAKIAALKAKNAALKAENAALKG

4H2604-AA = target: T36, 4H2604-AA; assay: two-hybrid library CCmax
T36 chain: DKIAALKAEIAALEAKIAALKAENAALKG

4H2621-AA = target: T37, 4H2621-AA; assay: two-hybrid library CCmax; settings: mean of both orientations
T37 chain: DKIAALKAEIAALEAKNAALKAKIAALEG

4H3049-AA = target: T38, 4H3049-AA; assay: two-hybrid library CCmax; settings: mean of both orientations
T38 chain: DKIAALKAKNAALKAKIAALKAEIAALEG

4H932-bA = target: T39, 4H932-bA; assay: two-hybrid library CCNG1
T39 chain: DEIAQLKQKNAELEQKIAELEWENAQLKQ

4H3381-bA = target: T40, 4H3381-bA; assay: two-hybrid library CCNG1
T40 chain: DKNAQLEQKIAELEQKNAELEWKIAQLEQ

4H730-bA = target: T41, 4H730-bA; assay: two-hybrid library CCNG1
T41 chain: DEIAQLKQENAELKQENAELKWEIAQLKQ

4H949-bA = target: T42, 4H949-bA; assay: two-hybrid library CCNG1
T42 chain: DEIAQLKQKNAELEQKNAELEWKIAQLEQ

4H56-bA = target: T43, 4H56-bA; assay: two-hybrid library CCNG1
T43 chain: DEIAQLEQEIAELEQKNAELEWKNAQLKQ

4H349-bA = target: T44, 4H349-bA; assay: two-hybrid library CCNG1
T44 chain: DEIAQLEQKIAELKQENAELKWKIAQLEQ

4H796-bA = target: T45, 4H796-bA; assay: two-hybrid library CCNG1
T45 chain: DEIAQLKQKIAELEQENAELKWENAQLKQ

4H3364-bA = target: T46, 4H3364-bA; assay: two-hybrid library CCNG1
T46 chain: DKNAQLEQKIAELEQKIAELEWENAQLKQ

4H2717-bA = target: T47, 4H2717-bA; assay: two-hybrid library CCNG1
T47 chain: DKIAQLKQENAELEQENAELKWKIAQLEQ

4H687-bA = target: T48, 4H687-bA; assay: two-hybrid library CCNG1
T48 chain: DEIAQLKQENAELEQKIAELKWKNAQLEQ

4H967-bA = target: T49, 4H967-bA; assay: two-hybrid library CCNG1
T49 chain: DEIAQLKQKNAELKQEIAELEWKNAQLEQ

4H883-bA = target: T50, 4H883-bA; assay: two-hybrid library CCNG1
T50 chain: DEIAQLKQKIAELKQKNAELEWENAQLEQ

4H462-bA = target: T51, 4H462-bA; assay: two-hybrid library CCNG1
T51 chain: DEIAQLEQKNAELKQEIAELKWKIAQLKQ

4H607-bA = target: T52, 4H607-bA; assay: two-hybrid library CCNG1
T52 chain: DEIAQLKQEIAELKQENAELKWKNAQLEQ

4H72-bA = target: T53, 4H72-bA; assay: two-hybrid library CCNG1
T53 chain: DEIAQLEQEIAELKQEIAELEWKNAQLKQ

4H568-bA = target: T54, 4H568-bA; assay: two-hybrid library CCNG1
T54 chain: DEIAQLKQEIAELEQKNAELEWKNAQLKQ

O6-bA = target: T55, O6-bA; assay: two-hybrid library CCNG1
T55 chain: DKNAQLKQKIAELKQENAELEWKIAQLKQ

4H953-bA = target: T56, 4H953-bA; assay: two-hybrid library CCNG1
T56 chain: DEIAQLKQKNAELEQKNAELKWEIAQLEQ

4H797-bA = target: T57, 4H797-bA; assay: two-hybrid library CCNG1
T57 chain: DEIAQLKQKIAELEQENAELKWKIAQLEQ

4H906-bN = target: T58, 4H906-bN; assay: two-hybrid library CCNG1
T58 chain: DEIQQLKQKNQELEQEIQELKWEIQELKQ

4H570-bA = target: T59, 4H570-bA; assay: two-hybrid library CCNG1
T59 chain: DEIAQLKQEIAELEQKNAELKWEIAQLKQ

4H918-bA = target: T60, 4H918-bA; assay: two-hybrid library CCNG1
T60 chain: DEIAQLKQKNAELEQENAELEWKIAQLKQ

- interaction score (4H492-bA): -0.582
- interaction score (4H319-bA): 1.61
- interaction score (4H3057-bA): -0.0141
- interaction score (4H2839-bA): 0.104
- interaction score (4H477-bA): -0.768
- interaction score (4H741-bA): -0.816
- interaction score (4H2915-bA): -0.223
- interaction score (4H3277-bA): -0.969
- interaction score (4H40-bA): 1.35
- interaction score (4H348-bA): -0.533
Binder: DKIAQLKQKIAELEQENAELEWKNAQLEQ [4H2839-bA]

- interaction score (P9A): -1.56
- interaction score (P8A): -1.27
Binder: DKIAQLKEENQQLEQKIQALKEENAALEY [P8A]

- interaction score (O9-bS): -0.729
- interaction score (O5-bS): -1.98
- interaction score (O8-bS): -1.34
- interaction score (O7-bS): -1.98
- interaction score (O6-bS): 2.08
Binder: DENSQLEQEISELEQKNSELKWEISQLEQ [O5-bS]

- interaction score (4H341-AA): 0.155
- interaction score (4H2961-AA): -1.69
- interaction score (4H63-AA): -1.37
- interaction score (4H2774-AA): -1.79
- interaction score (4H2947-AA): -1.68
- interaction score (4H2760-AA): -1.02
- interaction score (4H3629-AA): 1.84
- interaction score (4H3619-AA): -0.188
- interaction score (4H3094-AA): -1.23
- interaction score (4H3974-AA): -0.774
- interaction score (4H432-AA): -1.37
- interaction score (4H3449-AA): -0.758
- interaction score (4H2903-AA): -0.407
- interaction score (4H446-AA): -1.79
- interaction score (4H3777-AA): -1.38
- interaction score (4H3915-AA): 0.216
- interaction score (4H324-AA): 2.07
- interaction score (4H380-AA): 1.01
- interaction score (4H2604-AA): 1.78
- interaction score (4H2621-AA): -0.139
- interaction score (4H3049-AA): -0.492
Binder: DKIAALKAEIAALEAKIAALKAENAALKG [4H2604-AA]

- interaction score (4H932-bA): -0.586
- interaction score (4H3381-bA): -0.647
- interaction score (4H730-bA): 0.124
- interaction score (4H949-bA): -1.22
- interaction score (P8A): -0.26
- interaction score (4H56-bA): 0.349
- interaction score (4H349-bA): -1.53
- interaction score (4H796-bA): 0.137
- interaction score (4H3364-bA): 1.01
Binder: DKNAQLEQKIAELEQKIAELEWENAQLKQ [4H3364-bA]

- interaction score (4H492-bA): -1.39
- interaction score (4H3057-bA): 1.23
- interaction score (4H2839-bA): -0.857
- interaction score (4H477-bA): 0.776
- interaction score (4H741-bA): -1.48
- interaction score (4H2915-bA): -0.721
- interaction score (4H3277-bA): -0.874
- interaction score (4H40-bA): -1.55
- interaction score (4H2717-bA): 1.02
- interaction score (4H348-bA): -1.06
Binder: DKIAQLKQENAELEQENAELKWKIAQLEQ [4H2717-bA]

- interaction score (4H687-bA): 0.993
- interaction score (4H967-bA): -0.0789
- interaction score (4H883-bA): -1.19
- interaction score (4H462-bA): 1.24
- interaction score (4H607-bA): -0.0392
- interaction score (4H72-bA): 0.312
- interaction score (4H568-bA): -0.962
- interaction score (O6-bA): 1.7
- interaction score (4H953-bA): -0.872
- interaction score (4H797-bA): -0.251
- interaction score (4H906-bN): 0.676
- interaction score (4H570-bA): -2.87
- interaction score (4H918-bA): -1.06
Binder: DEIAQLEQKNAELKQEIAELKWKIAQLKQ [4H462-bA]
